The source of these data is article PMC3656841.

In this assay the target is T1, Bacillus subtilis DNA Ligase D (BsuLigD) (B. subtilis) (UniProt O34398).
T1 sequence: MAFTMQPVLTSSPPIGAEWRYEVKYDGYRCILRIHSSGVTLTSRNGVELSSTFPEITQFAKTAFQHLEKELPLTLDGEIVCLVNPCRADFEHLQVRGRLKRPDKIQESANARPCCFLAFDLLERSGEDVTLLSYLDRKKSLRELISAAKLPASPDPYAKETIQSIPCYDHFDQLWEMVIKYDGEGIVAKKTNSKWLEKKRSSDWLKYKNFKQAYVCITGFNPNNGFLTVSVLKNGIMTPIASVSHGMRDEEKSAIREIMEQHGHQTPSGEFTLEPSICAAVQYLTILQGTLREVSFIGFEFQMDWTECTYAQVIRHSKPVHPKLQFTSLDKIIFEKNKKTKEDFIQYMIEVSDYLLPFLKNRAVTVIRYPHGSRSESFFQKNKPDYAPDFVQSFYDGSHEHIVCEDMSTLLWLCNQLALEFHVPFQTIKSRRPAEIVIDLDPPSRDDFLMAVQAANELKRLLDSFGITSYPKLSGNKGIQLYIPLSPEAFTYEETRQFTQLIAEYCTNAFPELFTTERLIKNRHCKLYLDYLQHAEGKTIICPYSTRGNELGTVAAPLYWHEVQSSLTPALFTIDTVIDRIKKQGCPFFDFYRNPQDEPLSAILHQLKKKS

B1: Bacillus subtilis Ku (BsuKu) (natural protein)
chain: MNRTPSLHTKEKKGFIDMHTMWKGSISFGLVNIPIKLYAATEDKDIKLRSLHKEDHAPIKYEKVCTNCEKTLSPDEIVKGYEYVKGKYVVLTDEDLKSLKQEHEEKAVEIVDFVQLQEIDPIYFNRSYFVGPGDNGTKAYTLLREALRSTGKIGIANMTIRSKQQLAILRVYENCIVMESIHYPDEVRSAAQVPGVPDQSNVNDKELQTAITLIDELTAKFEPEKYEDTYRQALLQRVNDKLENKETAVTPDKAPPREDVIDLVSALQASIDRTRRPNRETPAAAPAQAAEPKGAGDKKQKTTRKKASGTS
B1 yielded a primer usage by BsuLigD (percentage of extended primers against reaction time) on a gapped molecule, 10 ng BsuLigD, 10 µM NTPs, without or with 40 ng of BsuKu of 3 fold.
